From publication PMC8564726, “Heterodimerization of H3K9 histone methyltransferases G9a and GLP activates methyl reading and writing capabilities” (The Journal of Biological Chemistry, 2021)
Read-outs that look alike come from different tables or passages of the source.

Experiments:
H3_1–20 K9me1 peptide = assay: Fluorescence polarization binding to H3K9me1 peptide
Description: (§1) Polarization assays with fluoresceinated H3_1–20 K9me1 or K9me2 peptides, 147 bp 601 DNA template, and core nucleosomes were performed and Kd values estimated as described ([11]) with the following modifications: The reaction buffer was 100 mM Tris pH 8, 100 mM KCl, 1 mM MgCl2, 20 μM ZnSO4, 10 mM BME, 0.1% NP-40. The concentration of peptides and nucleosomes was 150 nM and 200 nM for DNA. Polarization measurements were conducted on a Biotek Cytation 5 (peptide and nucleosome) or Molecular Devices Spectramax (DNA) plate reader with low-volume plates (Corning) in either 10 μl (peptide, nucleosome) or 40 μl (DNA) total volume.

H3_1–20 K9me2 peptide = assay: Fluorescence polarization binding to H3K9me2 peptide
Description: as §1

[1] = tested on: unmethylated (H3K9me0) mononucleosomes; assay: Fluorescence polarization binding to unmethylated mononucleosome
Excerpt: (§2) Histone proteins and nucleosomes were purified as described ([11], [26]) with modifications (see Supporting methods). For fluorescence polarization, nucleosomes were reconstituted with a 5ʹ fluoresceinated DNA template. H3K9 dimethylation was installed via Methyl-Lysine Analog (MLA) technology as described ([10], [26]). K9 MLA-monomethylated H3 was purchased from Active Motif. H3K27A was introduced by site-directed mutagenesis and purified as described ([26]).
as §1

[2] = tested on: H3K9me1 monomethylated mononucleosomes; assay: Fluorescence polarization binding to H3K9me1 mononucleosome
Excerpt: as §2, §1

H3_1–20 peptide = assay: H3 tail peptide methylation kinetics (multiple turnover); assay type: biochemical; conditions: Michaelis–Menten, 9 μM 3H-SAM + 1000 μM cold SAM, 0.4 to 0.8 μM enzyme, pH 8, duplicates, 95% CI: G9a-G9a 24.6-34.6, GLP-GLP 9.5-15.5, G9a-GLP 26.0-34.5, G9aS-GLP 20.5-28.3, listed as GLP
Description: (§3) Substrate peptides or nucleosomes were mixed in a solution containing 9 μM tritiated S-Adenosyl Methionine (SAM, PerkinElmer) cofactor, and reactions were initiated upon addition of 0.4 to 0.8 μM enzyme. Peptide reactions were supplemented with 1000 μM cold SAM to fully saturate the SAM-binding pocket (Fig. S3). Due to signal limitations, nucleosome reactions were not supplemented with SAM (see Supporting methods). Reactions were run in 100 mM Tris pH 8, 100 mM KCl, 1 mM MgCl2, 20 μM ZnSO4, 10 mM BME and quenched with laemmli buffer. Peptide reactions were performed as described ([11]). Nucleosome methylation reactions were read out via autoradiography as described ([11]), except that proteins were separated on an 18% SDS PAGE gel.
All methylation reactions (except Fig. S4A) were performed under Multiple Turnover conditions ([25]). To determine initial rates, methylation time courses were traced at various concentrations of H3K9-containing substrate while keeping the concentration of SAM and enzyme constant. Plots of initial rate versus concentration H3K9 substrate measured in duplicate or triplicate were fit to V = Vmax∗[S]/(KM + [S]) using Prism software to extract KM and kcat (or kobs) values as well as the 95% confidence interval bounds of the fit. See Supporting methods for special considerations for nucleosome kinetics.

[3] = tested on: mononucleosome (core nucleosome); assay: Mononucleosome methylation kinetics (multiple turnover); assay type: biochemical; conditions: initial rates, 10 μM histone tails (Fig. 3F)
Excerpt: as §2
Substrate peptides or nucleosomes were mixed in a solution containing 9 μM tritiated S-Adenosyl Methionine (SAM, PerkinElmer) cofactor, and reactions were initiated upon addition of 0.4 to 0.8 μM enzyme. Peptide reactions were supplemented with 1000 μM cold SAM to fully saturate the SAM-binding pocket (Fig. S3). […] Nucleosome methylation reactions were read out via autoradiography as described ([11]), except that proteins were separated on an 18% SDS PAGE gel. […]
(§4) Detailed E. coli protein expression, purification, and tag cleavage methods Cells co- expressing His and MBP constructs were lysed on ice via sonication in lysis buffer (100mM Tris pH 8, 300mM NaCl, 10% glycerol (v/v), 0.1% Tween-20, with freshly added 1mM β-mercaptoethanol (BME), 1mM PMSF, 5mM Benzamidine, 200µM Leupeptin, Aproptinin, Pepstatin, Phenantroline). […] All protein constructs were quantified using SDS page with BSA standards and Sypro Red stain. […]

10-nucleosome arrays = assay: Nucleosome array methylation, initial rate; assay type: biochemical; conditions: 2 μM histone tails, nonsaturating (Fig. 3H)
Description: as §3
All methylation reactions (except Fig. S4A) were performed under Multiple Turnover conditions ([25]). […]
as §4

affinity for H3K9me1 peptide, in words (H3_1–20 K9me1 peptide; listed as GLP) | reduced binding to me2 peptides (fold) (H3_1–20 K9me2 peptide; GLP ANK-SET homodimer, reduction as worded (reference me1 binding or ANK alone not stated)) [times] | binding to nucleosomes, in words [1] | Kd ([1]; 147 bp 601 DNA 5ʹ fluorescein-labeled nucleosomes, 150 nM, pH 8, 100 mM KCl, 0.1% NP-40, 95% CI (μM): G9a 6.4-8.6, G9a-GLP 5.6-7.6, GLP-GLP 17.4-41.5, read-out: Kd, unmethylated (me0) mononucleosome) [µM] | binding to H3K9me1 nucleosomes, in words [2] | Molecule | affinity for H3K9me1 peptide, in words (H3_1–20 K9me1 peptide) | affinity for H3K9me2 peptide, in words (H3_1–20 K9me2 peptide) | kcat, H3_1–20 peptide (H3_1–20 peptide) [s⁻¹] | activity on mononucleosomes near saturation, in words [3] | initial rate on nucleosome arrays, in words (10-nucleosome arrays)
 |  |  |  |  | full-length G9a: E. coli expressed MBP:FL-G9a (protein) MRGLPRGRGLMRARGRGRAAPTGGRGRGRGGAHRGRGRPRSLLSLPRAQASWAPQLPAGLTGPPVPCLPSQGEAPAEMGALLLEKEPRGAAERVHSSLGDTPQSEETLPKANPDSLEPAGPSSPASVTVTVGDEGADTPVGAASLIGDEPESLEGDGGRIVLGHATKSFPSSPSKGGACPSRAKMSMTGAGKSPPSVQSLAMRLLSMPGAQGAATAGPEPSPATTAAQEGQPKVHRARKTMSKPSNGQPPIPEKRPPEVQHFRMSDDMHLGKVTSDVAKRRKLNSGSLSEDLGSAGGSGDIILEKGEPRPLEEWETVVGDDFSLYYDAYSVDERVDSDSKSEVEALAEQLSEEEEEEEEEEEEEEEEEEEEEEEEEDEESGNQSDRSGSSGRRKAKKKWRKDSPWVKPSRKRRKREPPRAKEPRGVNGVGSSGPSEYMEVPLGSLELPSEGTLSPNHAGVSNDTSSLETERGFEELPLCSCRMEAPKIDRISERAGHKCMATESVDGELLGCNAAILKRETMRPSSRVALMVLCEAHRARMVKHHCCPGCGYFCTAGTFLECHPDFRVAHRFHKACVSQLNGMVFCPHCGEDASEAQEVTIPRGDGGTPPIGTAAPALPPLAHDAPGRADTSQPSARMRGHGEPRRPPCDPLADTIDSSGPSLTLPNGGCLSAVGLPPGPGREALEKALVIQESERRKKLRFHPRQLYLSVKQGELQKVILMLLDNLDPNFQSDQQSKRTPLHAAAQKGSVEICHVLLQAGANINAVDKQQRTPLMEAVVNNHLEVARYMVQLGGCVYSKEEDGSTCLHHAAKIGNLEMVSLLLSTGQVDVNAQDSGGWTPIIWAAEHKHIDVIRMLLTRGADVTLTDNEENICLHWASFTGSAAIAEVLLNAQCDLHAVNYHGDTPLHIAARESYHDCVLLFLSRGANPELRNKEGDTAWDLTPERSDVWFALQLNRKLRLGVGNRAVRTEKIICRDVARGYENVPIPCVNGVDGEPCPEDYKYISENCETSTMNIDRNITHLQHCTCVDDCSSSNCLCGQLSIRCWYDKDGRLLQEFNKIEPPLIFECNQACSCWRSCKNRVVQSGIKVRLQLYRTAKMGWGVRALQTIPQGTFICEYVGELISDAEADVREDDSYLFDLDNKDGEVYCIDARYYGNISRFINHLCDPNIIPVRVFMLHQDLRFPRIAFFSSRDIRTGEELGFDYGDRFWDIKSKYFTCQCGSEKCKHSAEAIALEQSRLARLDPHPELLPDLSSLPPINT | no discernable affinity for me1 or me2 peptides | no discernable affinity for me1 or me2 peptides |  |  | 
binds H3K9me1 peptides tightly | 12.5 | binds poorly to nucleosomes | 26.3 | binds relatively tightly to H3K9me1 | GLP-GLP: homodimer of GLP truncated to the C-terminal ANK and SET domains (ANK-SET) (protein) MAAADAEQAVLAKQETKQDCCMKTELLREDTPMAADEGSTEKQEGETPMAADGETNGSCEKSGDPSHLNAPKHTQENTRASPQEGTNRVSRVAENGVSERDTEVGKQNHVTADDFMQTSVIGSNGYFLNKPALQGQPLRTPNILTSSLPGHAAKTLPGGASKCRTLSALPQTPTTAPTVPGEGSADTEDRKPTASGTDVRVHRARKTMPKSILGLHAASKDHREVQDHKEPKEDINRNISECGRQQLLPTFPALHQSLPQNQCYMATTKSQTACLPFVLAAAVSRKKKRRMGTYSLVPKKKTKVLKQRTVIEMFKSITHSTVGAKGEKALDDSALHVNGESLEMDSEDEDSDELEDDEDHGAEQAAAFPTEDSRTSKESMSETDRAAKMDGDSEEEQESPDTGEDEDGGDESDLSSESSIKKKFLKRRGKTDSPWIKPARKRRRRSRKKPSSMLGSEACKSSPGSMEQAALGDSAGYMEVSLDSLDLRVRGILSSQTENEGLASGPDVLGTDGLQEVPLCSCRMETPKSREISTLANNQCMATESVDHELGRCTNSVVKYELMRPSNKAPLLVLCEDHRGRMVKHQCCPGCGYFCTAGNFMECQPESSISHRFHKDCASRVNNASYCPHCGEEASKAKEVTIAKADTTSTVTLAPGQEKSLAAEGRADTTTGSIAGAPEDERSQSTAPQAPECFDPAGPAGLVRPTSGLSQGPGKETLESALIALDSEKPKKLRFHPKQLYFSARQGELQKVLLMLVDGIDPNFKMEHQSKRSPLHAAAEAGHVDICHMLVQAGANIDTCSEDQRTPLMEAAENNHLDAVKYLIKAGAQVDPKDAEGSTCLHLAAKKGHYDVVQYLLSNGQMDVNCQDDGGWTPMIWATEYKHVELVKLLLSKGSDINIRDNEENICLHWAAFSGCVDIAEILLAAKCDLHAVNIHGDSPLHIAARENRYDCVVLFLSRDSDVTLKNKEGETPLQCASLSSQVWSALQMSKALRDSAPDKPVAVEKTVSRDIARGYERIPIPCVNAVDSELCPTNYKYVSQNCVTSPMNIDRNITHLQYCVCVDDCSSSTCMCGQLSMRCWYDKDGRLLPEFNMAEPPLIFECNHACSCWRNCRNRVVQNGLRARLQLYRTQDMGWGVRSLQDIPLGTFVCEYVGELISDSEADVREEDSYLFDLDNKDGEVYCIDARFYGNVSRFINHHCEPNLVPVRVFMSHQDLRFPRIAFFSTRLIQAGEQLGFDYGERFWDVKGKLFSCRCGSSKCRHSSAALAQRQASAAQEPQENGLPDTSSAAAADPL | can recognize H3K9me1 |  | ~0.233 | slowest of the three enzyme constructs | slowest
